Source: US6939707B2, “Isolated nucleic acid molecules which encode GAGE genes and uses thereof” (Ludwig Institute for Cancer Research, priority 1993, dated 2005)

B1: GAGE-5: cDNA highly related to GAGE, from MZ2-MEL.43 library (nucleic acid)
DNA: AGCTGTGAGGCAGTGCTGTGTGGTTCCTGCCGTCCGGACTCTTTTTCCTCTACTGAGATTCATCTGTGTGAAATATGAGTTGGCGAGGAAGATCGACCTATTATTGGCCTAGACCAAGGCGCTATGTACAGCCTCCTGAAGTGATTGGGCCTATGCGGCCCGAGCAGTTCAGTGATGAAGTGGAACCAGCAACACCTGAAGAAGGGGAACCAGCAACTCAACGTCAGGATCCTGCAGCTGCTCAGGAGGGAGAGGATGAGGGAGCATCTGCAGGTCAAGGGCCGAAGCCTGAAGCTGATAGCCAGGAACAGGGTCACCCACAGACTGGGTGTGAGTGTGAAGATGGTCCTGATGGGCAGGAGATGGACCCGCCAAATCCAGAGGAGGTGAAAACGCCTGAAGAAGGTGAAAAGCAATCACAGTGTTAAAAGAAGGCACGTTGAAATGATGCAGGCTGCTCCTATGTTGGAAATTTGTTCATTAAAATTCTCCCAATAAAGCTTTACAGCCTTCTGCAAAGAAAAAAAAAAAA
B2: GAGE-1: cDNA coding for GAGE tumor rejection antigen precursor, SEQ ID NO: 1 (nucleic acid)
DNA: CTGCCGTCCGGACTCTTTTTCCTCTACTGAGATTCATCTGTGTGAAATATGAGTTGGCGAGGAAGATCGACCTATCGGCCTAGACCAAGACGCTACGTAGAGCCTCCTGAAATGATTGGGCCTATGCGGCCCGAGCAGTTCAGTGATGAAGTGGAACCAGCAACACCTGAAGAAGGGGAACCAGCAACTCAACGTCAGGATCCTGCAGCTGCTCAGGAGGGAGAGGATGAGGGAGCATCTGCAGGTCAAGGGCCGAAGCCTGAAGCTGATAGCCAGGAACAGGGTCACCCACAGACTGGGTGTGAGTGTGAAGATGGTCCTGATGGGCAGGAGATGGACCCGCCAAATCCAGAGGAGGTGAAAACGCCTGAAGAAGAGATGAGGTCTCACTATGTTGCCCAGACTGGGATTCTCTGGCTTTTAATGAACAATTGCTTCTTAAATCTTTCCCCACGGAAACCTTGAGTGACTGAAATATCAAATGGCGAGAGACCGTTTAGTTCCTATCATCTGTGGCATGTGAAGGGCAATCACAGTGTTAAAAGAAGACATGCTGAAATGTTGCAGGCTGCTCCTATGTTGGAAAATTCTTCATTGAAGTTCTCCCAATAAAGCTTTACAGCCTTCTGCAAAGAAAAAAAAAAAA
B3: GAGE-2: cDNA highly related to GAGE, from MZ2-MEL.43 library (nucleic acid)
DNA: ACGCCAGGGAGCTGTGAGGCAGTGCTGTGTGGTTCCTGCCGTCCGGACTCTTTTTCCTCTACTGAGATTCATCTGTGTGAAATATGAGTTGGCGAGGAAGATCGACCTATCGGCCTAGACCAAGACGCTACGTAGAGCCTCCTGAAATGATTGGGCCTATGCGGCCCGAGCAGTTCAGTGATGAAGTGGAACCAGCAACACCTGAAGAAGGGGAACCAGCAACTCAACGTCAGGATCCTGCAGCTGCTCAGGAGGGAGAGGATGAGGGAGCATCTGCAGGTCAAGGGCCGAAGCCTGAAGCTCATAGCCAGGAACAGGGTCACCCACAGACTGGGTGTGAGTGTGAAGATGGTCCTGATGGGCAGGAGATGGACCCGCCAAATCCAGAGGAGGTGAAAACGCCTGAAGAAGGTGAAAAGCAATCACAGTGTTAAAAGAAGACACGTTGAAATGATGCAGGCTGCTCCTATGTTGGAAATTTGTTCATTAAAATTCTCCCAATAAAGCTTTACAGCCTTCTGCAAAGAAAAAAAAAAAA
B4: GAGE-3: cDNA highly related to GAGE, from MZ2-MEL.43 library (nucleic acid)
DNA: CTCATATTTCACACAGATGAGTTGGCGAGGAAGATCGACCTATTATTGGTCTAGGCCAATAATAGGTCGATCTTCCTCGCCAACTCATATTTCACACAGATGAATCTCAGTAGAGGAAAATCGACCTATTATTGGCCTAGACCAAGGCGCTATGTACAGCCTCCTGAAGTGATTGGGCCTATGCGGCCCGAGCAGTTCAGTGATGAAGTGGAACCAGCAACACCTGAAGAAGGGGAACCAGCAACTCAACGTCAGGATCCTGCAGCTGCTCAGGAGGGAGAGGATGAGGGAGCATCTGCAGGTCAAGGGCCGAAGCCTGAAGCTGATAGCCAGGAACAGGGTCACCCACAGACTGGGTGTGAGTGTGAAGATGGTCCTGATGGGCAGGAGATGGACCCGCCAAATCCAGAGGAGGTGAAAACGCCTGAAGAAGGTGAAAAGCAATCACAGTGTTAAAAGAAGGCACGTTGAAATGATGCAGGCTGCTCCTATGTTGGAAATTTGTTCATTAAAATTCTCCCAATAAAGCTTTACAGCCTTCTGCAAAGAAAAAAAAAAAA
B5: GAGE-4: cDNA highly related to GAGE, from MZ2-MEL.43 library (nucleic acid)
DNA: CGCCAGGGAGCTGTGAGGCAGTGCTGTGTGGTTCCTGCCGTCCGGACTCTTTTTCCTCTACTGAGATTCATCTGTGTGAAATATGAGTTGGCGAGGAAGATCGACCTATTATTGGCCTAGACCAAGGCGCTATGTACAGCCTCCTGAAATGATTGGGCCTATGCGGCCCGAGCAGTTCAGTGATGAAGTGGAACCAGCAACACCTGAAGAAGGGGAACCAGCAACTCAACGTCAGGATCCTGCAGCTGCTCAGGAGGGAGAGGATGAGGGAGCATCTGCAGGTCAAGGGCCGAAGCCTGAAGCTGATAGCCAGGAACAGGGTCACCCACAGACTGGGTGTGAGTGTGAAGATGGTCCTGATGGGCAGGAGATGGACCCGCCAAATCCAGAGGAGGTGAAAACGCCTGAAGAAGGTGAAAAGCAATCACAGTGTTAAAAGAAGGCACGTTGAAATGATGCAGGCTGCTCCTATGTTGGAAATTTGTTCATTAAAATTCTCCCAATAAAGCTTTACAGCCTTCTGCAAAAAAAAAAAAAAAA
B6: GAGE-6: cDNA highly related to GAGE, from MZ2-MEL.43 library (nucleic acid)
DNA: GCCAGGGAGCTGTGAGGCAGTGCTGTGTGGTTCCTGCCGTCCGGACTCTTTTTCCTCTACTGAGATTCATCTGTGTGAAATATGAGTTGGCGAGGAAGATCGACCTATTATTGGCCTAGACCAAGGCGCTATGTACAGCCTCCTGAAGTGATTGGGCCTATGCGGCCCGAGCAGTTCAGTGATGAAGTGGAACCAGCAACACCTGAAGAAGGGGAACCAGCAACTCAACGTCAGGATCCTGCAGCTGCTCAGGAGGGAGAGGATGAGGGAGCATCTGCAGGTCAAGGGCCGAAGCCTGAAGCTGATAGCCAGGAACAGGGTCACCCACAGACTGGGTGTGAGTGTGAAGATGGTCCTGATGGGCAGGAGGTGGACCCGCCAAATCCAGAGGAGGTGAAAACGCCTGAAGAAGGTGAAAAGCAATCACAGTGTTAAAAGAAGACACGTTGAAATGATGCAGGCTGCTCCTATGTTGGAAATTTGTTCATTAAAATTCTCCCAATAAAGCTTTACAGCCTTCTGCAAAAAAAAAAAAAAAA

test system: CTL 76/6; assay: TNF release / recognition by CTL 76/6 of COS cells cotransfected with GAGE cDNA and HLA-Cw6 cDNA; type: cell-based, human; details: COS cells transfected with cDNA together with HLA-Cw6 cDNA (FIG. 2, FIG. 6)
Procedure: Following preparation of the library described in Example 3, the cDNA was transfected into eukaryotic cells. The transfections, described herein, were carried out in duplicate. Samples of COS-7 cells were seeded, at 15,000 cells/well into tissue culture flat bottom microwells, in Dulbecco's modified Eagles Medium (“DMEM”) supplemented with 10% fetal calf serum. The cells were incubated overnight at 37° C., medium was removed and then replaced by 50 μl/well of DMEM medium containing 10% Nu serum, 400 μg/ml DEAE-dextran, and 100 μM chloroquine, plus 100 ng of the plasmids. […] As a result, cDNA for each of the HLA molecules which could present the antigen (A1, B37, Cw6) was used, separately, to cotransfect the cells. Specifically, one of 28 ng of the gene encoding HLA-A1 cloned into pCD-SRα, 50 ng of cDNA for HLA-B37 in pcDNA 1/Amp, or 75 ng of cDNA for HLA-Cw6 in pcDNAI-Amp, using the same protocols as were used for transfeclion with the library.
Transfection was carried out in duplicate wells, but only 500 pools of the HLA-Cw6 transfectants could be tested in single wells. Following four hours of incubation at 37° C., the medium was removed, and replaced by 50 μl of PBS containing 10% DMSO. This medium was removed after two minutes and replaced by 200 μl of DMEM supplemented with 10% FCS.
(§1) Following this change in medium, COS cells were incubated for 24-48 hours at 37° C. Medium was then discarded, and 1000-3000 cells of CTL clone 76/6 were added, in 100 μl of Iscove's medium containing 10% pooled human serum supplemented with 20-30 U/ml of recombinant IL-2. Supernatant was removed after 24 hours, and TNF content was determined in an assay on WEHI cells, as described by Traversari et al., Immunogenetics 35: 145-152 (1992), the disclosure of which is incorporated by reference.
The bacteria of the selected pool were cloned, and 600 clones were tested. Plasmid DNA was extracted therefrom, transfected into a new sample of COS cells in the same manner as described supra, and the cells were again tested for stimulation of CTL clone 76/6. Ninety-four positive clones were found. One of these, referred to as cDNA clone 2D6, was tested further. In a comparative test COS cells were transfected with cDNA clone 2D6 and the HLA-Cw6 cDNA, HLA-Cw6 cDNA alone, or cDNA 2D6 alone. Control cell lines MZ2-MEL F and MZ2-MEL F^+ were also used. TNF release into CTL supernatant was measured by testing it on WEHI cells, as referred to supra. The number of surviving WEHI cells was measured by optical density after incubation of the cells with MTT.
To assess whether the change at position 2 affected the antigenicity of the peptide, cDNA of the 6 GAGE cDNAs were individually transfected into COS cells together with the cDNA of HLA-Cw6, and the transfectants were tested for recognition by CTL 76/6 as described, supra. Only GAGE-1 and GAGE-2 transfected cells were recognized, showing that the modified peptide encoded by GAGE-3, 4, 5 and 6 was not antigenic in the context of this experiment.

| Molecule | recognition by CTL 76/6 (TNF release) |
| --- | --- |
| B1 | not antigenic |
| B2 | recognized |
| B3 | recognized |
| B4 | not antigenic |
| B5 | not antigenic |
| B6 | not antigenic |

same assay, conditions: COS cells transfected with cDNA together with HLA-Cw6 cDNA (FIG. 2, FIG. 6); listed as cDNA clone 2D6

| Molecule | recognition by CTL 76/6 (TNF release) |
| --- | --- |
| B2 | stimulated TNF release |

test system: CTL 22/23; assay: TNF production by CTL 22/23 on COS-7 cells cotransfected with HLA-A29 and GAGE cDNA; type: cell-based, human; details: COS-7 cells transfected with HLA-A29 and the cDNA, 24 hours (FIG. 7)
Procedure: as §1
Once positive HLA-A29 clones were isolated, these were transfected into COS-7 using the DEAE-dextran chloroquine method out supra. In brief, 1.5×10^4 COS-7 cells were treated with 50 ng of plasmid pcDNA-I/Amp containing HLA-A29, and 100 ng of cDNA containing cDNA for one of the GAGE sequences mentioned supra, or one of the prior art MAGE or BAGE sequences in plasmid pcDNAα-I/Amp or pcDSR-α, respectively. The transfectants were then incubated for 24 hours at 37° C.
The transfectants were then tested for their ability to stimulate TNF production by CTLs, using the assay explained at the end of example, 4, supra.

| Molecule | stimulation of TNF production by CTL clone 22/23 |
| --- | --- |
| B1 | high levels of TNF production |
| B2 | do not stimulate CTL clone 22/23 |
| B3 | do not stimulate CTL clone 22/23 |
| B4 | high levels of TNF production |
| B5 | high levels of TNF production |
| B6 | high levels of TNF production |
